Source: the nanobody polyreactivity screen of Harvey et al. (2022)

Test: yeast display, Sf9 membrane polyspecificity reagent, FACS + sequencing; frameworks hold sequencing errors
In short: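 Synthetic nanobody libraries on Saccharomyces cerevisiae BJ5465 were galactose-induced for 36–48 hours, stained 1 hour at 4 °C with 10% biotinylated, detergent-solubilized Sf9 membrane reagent and enriched on streptavidin microbeads. FACS then separated cells into low and high (top ~1%) gates by anti-HA (expression) and streptavidin (reagent binding) fluorescence. Genes were colony-PCR amplified, MiSeq 2 × 250 sequenced and CDR-length filtered. A clone's polyreactivity label is that of its gate of origin.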

QVQLVESGGGLVQAGGSLRLSCAASGRIFSYYAMGWYRQAPGKERELVASISRGSSTYYADSVKGRFTISRDNAKNTVYLQMNSLKPEDTAVYYCARQWLGYPYTTYTGSPVEGYGYWGQGTQVTVSS
polyreactivity (PSR sort gate): high polyreactivity

QVQLVESGGGLVQAGGSLRLSCAASGRIFSYYAMGWYRQAPGKERELVASITSGGSTYADSVKGRCTISRDSAKNTVYLQMNSLKREDTAVYYCAAGGKRRWPRKHYGYWGQGSQVTVSS
polyreactivity (PSR sort gate): high polyreactivity

QVQLVESGGGLVQAGGSLRLSCAASGRIFSYYAMGWYRQAPGKERELVATINWRADTYYADSVKGRFTISRDNAKKTVYLQMNSLKPEDSAVYYCAKRPRPTDKYDYWGQGTQVTVSS
polyreactivity (PSR sort gate): high polyreactivity

QVQLVESGGGLVQAGGSLRLSCAASGRIFSYYAMGWYRQAPGKERELVATISYSGGSTYYADSVKGRFTISRDNAKNTVYLQMNSLKPEDTAVYYCAATRYPYYSFVRFPSRRFNYWGQGTQVTVSS
polyreactivity (PSR sort gate): high polyreactivity

QVQLVESGGGLVQAGGSLRLSCAASGRIFSYYAMGWYRQAPGKERELVAVISRRGDNTYYADSVKGRFTISRDNAKNTVYLQMNSLKPEDTEVFYCAAYSWYAKDFDYWGQGTQVTVSS
polyreactivity (PSR sort gate): high polyreactivity

QVQLVESGGGLVQAGGSLRLSCAASGRIFSYYDMGWYRQAPGKERELVAAITWRGGSTYYADSVKGRFTISRDNAKNTVYLQMNSLKPEDTAVYYCAADWYPSIWEYDYWGQGSQVTVSS
polyreactivity (PSR sort gate): low polyreactivity

QVQLVESGGGLVQAGGSLRLSCAASGRIFSYYGMGWYRQAPGKERELVAAISTGGNTNYADSLKGRFTISRDNAKNTVYLQMNSLKPEDTAVYYCAAGFPYKFTYVCGYNHWGQGTQVTVSS
polyreactivity (PSR sort gate): low polyreactivity

QVQLVESGGGLVQAGGSLRLSCAASGRIFTAYYAMGWYRQAPGKERELVASISSSGTSTYADSVKGRFTISRDNAKNTVYLQMNSLKPEDTAVYYCATRKLRTRRYDYGYWGQGTQVNVSS
polyreactivity (PSR sort gate): low polyreactivity

QVQLVESGGGLVQAGGSLRLSCAASGRIFTDNVMGWYRQAPGKERELVAAITRRGGSTYYADSVKGRFTISRDNAKNTVYLQMNSLKPEDSAVYYCNARGRLYGHLYDYWGQGTQVTVSS
polyreactivity (PSR sort gate): low polyreactivity

QVQLVESGGGLVQAGGSLRLSCAASGRIFTFYAMGWYRQAPGKERELVATIRNGGSTNYADSVKGRFTISRDNAKNTVYLQMNSLKPEDTAVYYCNTYYYGRRRYGYWGQGTQVTVSS
polyreactivity (PSR sort gate): high polyreactivity

QVQLVESGGGLVQAGGSLRLSCAASGRIFTGNAMGWYRQAPGTERELVAAITKSGGSTYYADSVKGRFTISRDNAKNTVYLQMNSLKPEDTAVYYCAATRYLHYVYKYGYWGQGTQVTVSS
polyreactivity (PSR sort gate): high polyreactivity

QVQLVESGGGLVQAGGSLRLSCAASGRIFTGNSMGWYRQAPGKERELVAAITSSGGSTYYADSVKGRFTISRDNAKNTVYLQMNSLKPDDTAVYYCAALYSSWWSWYYYWGQGTQVTVSS
polyreactivity (PSR sort gate): high polyreactivity

QVQLVESGGGLVQAGGSLRLSCAASGRIFTGNVMGWYRQAPGKERELFAAISYGGGSTNYADSVKGRFTISRDNAKNTVYLQMNSLKPEDTAVYYCAAGIKRYLSYYTRYGYWGQGTQVTVSS
polyreactivity (PSR sort gate): high polyreactivity

QVQLVESGGGLVQAGGSLRLSCAASGRIFTGNVMGWYRQAPGKERELVAAITYRGGSTYYADSVKGRFTISRDNAKNTVYLQMHSLKPEDTAVYYCNTRWDPYGYDYWGQGTQVTVSS
polyreactivity (PSR sort gate): low polyreactivity

QVQLVESGGGLVQAGGSLRLSCAASGRIFTGYAMGWYRQAPGKERELVAAISRGGSTNYADSAKGRFTISRDNAKNTVYLQLNSLKPEDTAVYYCAAGVHWDRGDYWGQGTQVTVSS
polyreactivity (PSR sort gate): low polyreactivity

QVQLVESGGGLVQAGGSLRLSCAASGRIFTHNDMGWYRQAPGKERELVAAITSGGRTTYADSVKGRFTISRDNAKNTVYLQMNSLKPEDTAVYYCNADTCLGSLDFDKRDYWGQGTQVTVSS
polyreactivity (PSR sort gate): low polyreactivity

QVQLVESGGGLVQAGGSLRLSCAASGRIFTHYAMGWYRQAPGKERELVAAISRTGGTTNYADSVKGRFTISRDNAKNTVYLQMNSLKPEDTADYYCAAVGKGAKDYFKYYSWGQGTQVTVSS
polyreactivity (PSR sort gate): high polyreactivity

QVQLVESGGGLVQAGGSLRLSCAASGRIFTLYDMGWYIQAPGKERELVAAISNSAGSTYYADSVKGRFTISRDNAKNTVYLQMNSLKPEDTAVYYCAAELWSWWGSRDYWGQGTQVTVSS
polyreactivity (PSR sort gate): high polyreactivity

QVQLVESGGGLVQAGGSLRLSCAASGRIFTNNARGWYSQAPGKERELVDAINVSGGRTYYADSVKGRFTISRDNAKNTVYLQMNSLKPEDTAVYYCNKVKETYMDNWGQGTQVTVSS
polyreactivity (PSR sort gate): high polyreactivity

QVQLVESGGGLVQAGGSLRLSCAASGRIFTNYAMGWSRQAPGKERELVAAITGVGSTNYADSVKGRFTISRDNEKNTVYLQMNSLKPEDTAVYYCNAEYDYVSYVYTGFAFDYWGQGTQVTVSS
polyreactivity (PSR sort gate): low polyreactivity

QVQLVESGGGLVQAGGSLRLSCAASGRIFTNYAMGWYRQAPGKEREFVAAISWSDGSTYYADSVKGRFTISRDNAKNTVYLQMNSLKPEDTAVYYCATEGTYGTFYSYRHFYYWGQGTQVTVSS
polyreactivity (PSR sort gate): high polyreactivity

QVQLVESGGGLVQAGGSLRLSCAASGRIFTPNAMGWYRQAPGKERELVAAISRSGGSTYYADSVKGRFTISRDTAKNTVYLQMKSLKPEDTAVDYCNKLRTPSSGLDYWGQGTQVTVSS
polyreactivity (PSR sort gate): high polyreactivity

QVQLVESGGGLVQAGGSLRLSCAASGRIFTPYAMGWYRQAPGKERELVAVIRDGSTYYADSVKGRFTISRDNAKNTVYLQMNSLKPEDPAVSYCSYDIWVWWSGAYDYWGQGNQVTVSS
polyreactivity (PSR sort gate): low polyreactivity

QVQLVESGGGLVQAGGSLRLSCAASGRIFTPYARGWYRQAPGKERELVAAISGRGGSTYYADSVKGRFTISRDNAKNTVYLQMNSLKPEDTAVYYCAATYFYVYDYGLDYWGQGTQVTVSS
polyreactivity (PSR sort gate): high polyreactivity

QVQLVESGGGLVQAGGSLRLSCAASGRIFTPYVMGWYRQAPGKERELVADINLSGDSTSYADSVKGRFTISRDNAKNTVYLQMNSLKPEDTAVYYCNADSYIYVGNDQYDYWGQGTQVTVSS
polyreactivity (PSR sort gate): low polyreactivity

QVQLVESGGGLVQAGGSLRLSCAASGRIFTQYAMGWYRPAPGKERELVAAISSSGVRTYYADSVKGRFTISRDNAKNNVYLQMNSLKPEDTAVYYCAVRRGGAYYQFGYWGQGTQVTVSS
polyreactivity (PSR sort gate): high polyreactivity

QVQLVESGGGLVQAGGSLRLSCAASGRIFTRNAMGWYRQAPGKERELVAAISGTGGSTYYADSVKGRFTISRDNAKNTVYLQMNSLKPEDTAVYYCAASRARTRSAYNYWGQGTQVTVSS
polyreactivity (PSR sort gate): high polyreactivity

QVQLVESGGGLVQAGGSLRLSCAASGRIFTRNAMRWYRQAPGKEREFVAAISHSGGSTYADSVKGRFTISRDNAKNTVFLQMNSLKPEDTAVFYCAAEWSSLNFDYWGQGTQVTVSS
polyreactivity (PSR sort gate): low polyreactivity

QVQLVESGGGLVQAGGSLRLSCAASGRIFTRNTMGWYRQAPGKERELVAAISGRGGSTYYADSVKGRFTISRDNAKNTVYLQMNSLKPEDTAVYYCAADGVYRGGYDYWGQVTQVTVSS
polyreactivity (PSR sort gate): high polyreactivity

QVQLVESGGGLVQAGGSLRLSCAASGRIFTRYAMGWYRQAPGKERELVAAITYSGGSTYYADSVKGRFTISRDNAKNTVYLQMNSLKPEDTAVYYCAAPYIGFVRHRKMGYWGQGTQVTVSS
polyreactivity (PSR sort gate): low polyreactivity

QVQLVESGGGLVQAGGSLRLSCAASGRIFTSNVMGWYRQAPGKERELVAAISWTGGNTYYADSVKGRFTISRDKAKNSVYLQMNSLKPEDTAVYYCAVTYWSAVFIPNKYDYWGQGTQVTVSS
polyreactivity (PSR sort gate): low polyreactivity

QVQLVESGGGLVQAGGSLRLSCAASGRIFTSYAMGWYRQAPGKEREFVAAITRRGGSTYYADSVKGRFTISRDNAKNTVYLQMKSLKQEDTAVYYCAADIYSVPYPSWARYDYWGQGTQVTVSS
polyreactivity (PSR sort gate): high polyreactivity

QVQLVESGGGLVQAGGSLRLSCAASGRIFTSYAMGWYRQAPGKERELVAAITSGGRTYYADSVKGRFTISRDNAKNTVYLQKNSLKAEDTAVYYCNAPRYLRYNYCGQGTQVTVSS
polyreactivity (PSR sort gate): high polyreactivity

QVQLVESGGGLVQAGGSLRLSCAASGRIFTSYVMGWDRQAPGKERELVAAITRSGGSTYYADSVKGRFTISRDNAKNTVYLQMNSQKPEDTAVYYCAAGVRGGGGRYRYGYWGQGTQVTVSS
polyreactivity (PSR sort gate): high polyreactivity

QVQLVESGGGLVQAGGSLRLSCAASGRIFTTNAMGWYRQAPGIERELVAAITYSGGTTYYADSVKGRFTISRDNAKNTVYFQMNSLKPEDTAVYYCAADVKFSPPYDYWGQGTQVTVSS
polyreactivity (PSR sort gate): low polyreactivity

QVQLVESGGGLVQAGGSLRLSCAASGRIFTTNAMGWYRQAPGKDRELVAAITYSGGTTYYADSVKGRFTISRDNAKNTVYLEMNSLKPEDTAVYYCAADVKFSTPYDYWGQGTQVTVSS
polyreactivity (PSR sort gate): low polyreactivity

QVQLVESGGGLVQAGGSLRLSCAASGRIFTVFGMGWYRQAPGKERELVAAISWSGGGTYYADSVKGRFTISRDNAKNTVYLQMNSLKPEDTAVYYCNAVRQYTWSLVFFSSDYDYWGQGTQVTVSS
polyreactivity (PSR sort gate): low polyreactivity

QVQLVESGGGLVQAGGSLRLSCAASGRIFTWNAMGWYRQAPGKERELVASISRSGTSTYYADSVKGRFTISRDNAKNTVYLQMNSLKPEDTAVYYCNARTIYYYFRLSTPYNYWGQGTQVTVSS
polyreactivity (PSR sort gate): high polyreactivity

QVQLVESGGGLVQAGGSLRLSCAASGRIFTWYAMGWYRTAPGKERELVATITGDGNTYYADSVKGRFTISRDNAKNTVYLQMKSLKPEDTAVYYCNRYGYFRYRWGKYEYWGQGTQVTVSS
polyreactivity (PSR sort gate): high polyreactivity

QVQLVESGGGLVQAGGSLRLSCAASGRIFTYNAMGWYRQAPGKERELVAAITRGGTTNYADSVKGRFTISRDNAKNTVYLQMNSLKPEDTAVYYCARAGAHPWWSRSTMYYWGQGTQVTVSS
polyreactivity (PSR sort gate): low polyreactivity

QVQLVESGGGLVQAGGSLRLSCAASGRIFTYNAMGWYRQAPGKERELVATITWRGGGTYYADSVKGRFTISRDNAKNTVYLQMNSLKPEDTAVYYCNRRLPGDGQYGYRRYDYWGQGTQVTVSS
polyreactivity (PSR sort gate): low polyreactivity

QVQLVESGGGLVQAGGSLRLSCAASGRIFTYNAMGWYRQAPGKERELVAVISRRGGSTYYADSVKGRFTSSRDNAKNPVYLQMNSLTPEDSAVYYCAADLPSYPYEYWGQGPQVTVSS
polyreactivity (PSR sort gate): low polyreactivity

QVQLVESGGGLVQAGGSLRLSCAASGRIFTYNAMVWYRQAPGKERELVAVITSGGSTYYADSVKGRFTISRDNAKNTVYLQMNSLKPEDTAVYYCAARVWGSSQYYYWGQGTQVTVSS
polyreactivity (PSR sort gate): low polyreactivity
